The record followed here is paper doi:10.1101/2023.08.18.553786.

Assay [1] has as its target CDTb, the cell-binding component of the C. difficile binary toxin (CDT), active wild type (Clostridioides difficile). Put plainly: cryo-EM structure.
In assay [2] the target is CDTb^D623A/D734A, active Ca^2+-binding mutant of CDTb (Clostridioides difficile). Put plainly: cryo-EM structure.

For “CDTb, the cell-binding component of the C. difficile binary toxin (CDT), active wild type (natural protein)”, the stoichiometry N in assay [1] was found to be 7.

For “CDTb^D623A/D734A, active Ca^2+-binding mutant of CDTb (natural protein)”, in assay [2], the stoichiometry N amounted to 7.
